The target of experiment [1] is SHH-E177A (mouse SHH with E177A, expressed from the targeted endogenous locus) (mouse). The experiment is described as follows: SDS-resistant cross-linked form on Western blot of tissue extract.
The target of experiment [2] is SHHN-E176A (N-terminal construct of human SHH with E176A, N-lipid containing, C-lipid lacking) (human). The experiment is described as follows: cross-linking.

Broadly, the stoichiometry N is the number of molecules, sites or subunits per partner or assembly. For “SHH-E177A (mouse SHH with E177A, expressed from the targeted endogenous locus) (natural protein)”, the stoichiometry N in experiment [1] is 2.

The substance “SHHN-E176A (N-terminal construct of human SHH with E176A, N-lipid containing, C-lipid lacking) (domain or fragment)” had a stoichiometry N in experiment [2] of 2.

The values above are taken from article PMC6047533.
